Measurements taken from patent US20250197501A1.

Assays:
[1] = biological target: human B7-H3 on the surface of human cancer cells (human) (UniProt Q5ZPR3); assay: flow cytometry, A549 cells
[2] = biological target: human B7-H3 on the surface of human cancer cells (human) (UniProt Q5ZPR3); assay: flow cytometry, Huh7 cells
[3] = biological target: human B7-H3 on the surface of human cancer cells (human) (UniProt Q5ZPR3); assay: flow cytometry, PC-3 cells
[4] = biological target: human B7-H3 on the surface of human cancer cells (human) (UniProt Q5ZPR3); assay: flow cytometry, DU145 cells
[5] = biological target: human B7-H3 on the surface of human cancer cells (human) (UniProt Q5ZPR3); assay: flow cytometry, H1299 cells
[6] = biological target: human B7-H3 on the surface of human cancer cells (human) (UniProt Q5ZPR3); assay: flow cytometry, HA59T cells
[7] = biological target: human B7-H3 on the surface of human cancer cells (human) (UniProt Q5ZPR3); assay: flow cytometry, HepG2 cells
[8] = biological target: human B7-H3 on the surface of human cancer cells (human) (UniProt Q5ZPR3); assay: flow cytometry, LNCaP cells
[9] = biological target: human B7-H3 on the surface of human cancer cells (human) (UniProt Q5ZPR3); assay: flow cytometry, CAL 27 cells
[10] = biological target: human B7-H3 on the surface of human cancer cells (human) (UniProt Q5ZPR3); assay: flow cytometry, OECM-1 cells
[11] = biological target: human B7-H3 on the surface of human cancer cells (human) (UniProt Q5ZPR3); assay: flow cytometry, NCI-H520 cells
[12] = biological target: human B7-H3 on the surface of human cancer cells (human) (UniProt Q5ZPR3); assay: flow cytometry, Detroit 562 cells

Measured: MFI value

Sequence of human B7-H3 on the surface of human cancer cells (human) (Q5ZPR3 29-534 limits assumed): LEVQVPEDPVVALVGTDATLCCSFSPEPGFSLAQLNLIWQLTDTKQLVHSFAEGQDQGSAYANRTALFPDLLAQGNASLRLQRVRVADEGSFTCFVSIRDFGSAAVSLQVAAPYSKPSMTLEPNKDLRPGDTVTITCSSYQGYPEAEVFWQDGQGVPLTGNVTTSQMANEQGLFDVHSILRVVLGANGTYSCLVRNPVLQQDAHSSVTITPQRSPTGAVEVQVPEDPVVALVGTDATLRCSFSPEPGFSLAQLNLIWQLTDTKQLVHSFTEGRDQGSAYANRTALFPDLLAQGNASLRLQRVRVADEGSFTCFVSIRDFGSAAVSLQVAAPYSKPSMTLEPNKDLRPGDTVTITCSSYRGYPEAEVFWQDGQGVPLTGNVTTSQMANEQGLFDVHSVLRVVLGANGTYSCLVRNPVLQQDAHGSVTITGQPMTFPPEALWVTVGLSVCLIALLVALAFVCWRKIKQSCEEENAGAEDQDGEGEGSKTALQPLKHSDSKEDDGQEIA

IgG (isotype control antibody)
< 600 MFI: [1] | [2] | [3] | [4] | [5] | [6] | [7] | [8] | [9] | [10] | [11] | [12]
